Biological target: the molecule itself
Experiment: SEC

Protein	stoichiometry N
Methanococcus jannaschii FKBP26 fragment 231-ΔIF (1-231Δ83-G-A-G-134) (domain or fragment) MVEKGKMVKISYDGYVDGKLFDTTNEELAKKEGIYNPAMIYGPVAIFAGEGQVLPGLDEAILEMDVGEEREVVLPPEKAFGKRGAGLAGKEVKYRIKIEEVVDDKKNIVKEIVKMYVPRLSDVKVTIRNGTVKIELPEFAPFIPNIQTAKMAIANEILKRLEDAEKVSFVETFERKKETKEENK	2
Methanococcus jannaschii FKBP26, construct 231 (full-length, residues 1-231) (natural protein, UniProt Q58235 1-231, looked up) MVEKGKMVKISYDGYVDGKLFDTTNEELAKKEGIYNPAMIYGPVAIFAGEGQVLPGLDEAILEMDVGEEREVVLPPEKAFGKRDPSKIKLIPLSEFTKRGIKPIKGLTITIDGIPGKIVSINSGRVLVDFNHELAGKEVKYRIKIEEVVDDKKNIVKEIVKMYVPRLSDVKVTIRNGTVKIELPEFAPFIPNIQTAKMAIANEILKRLEDAEKVSFVETFERKKETKEENK	2

From PMC3099347 (Journal of molecular biology, 2011)
